# Measured values published in the DeepSol protein solubility set.
# Assay: soluble on expression in E. coli; label from the status in PepcDB or PDB records
row,Sequence,soluble on expression in E. coli
1,MGSDKIHHHHHHMINQDIARIFTEIAYLLEAAGEQKSQFEANAYLKASRAISSMQEDLETIYEKGGKDALLSIPGIGKGIADKIVEYINSGSIQKYEDLKKKYPIDFISLMKIEGLGPKKLAVLYQALGITNVEELRNAILNHKVRGIPGFGEKSENQLLKNIEMAERVSERIPIWKAYPEALRIKNYLESTGYALIVEIAGSTRRMKETIGDIDILAASEYPNALMDKFVEMDGVSSIIAKGDKKSTVSLKIGTTCDLRIVSKESFGAAMQYFTGSKDHNIKLRRLAIGKGMKLNEYGLFSGDKNIVSGMPEEKVYETLDLAYIPPELREDRGEIEAAAQKRLPEIVQYGEVKGDMFSKMDVSNIKNITGISYVFVDSGDGPLTDLYMYTFDGGRAVKTGASIKALDCSKLNAVSELKSASGVIMLYNIDSLGLPESAAVQNLIEKLSKSGIIVLINSSDVRPTSDFLYSLRKYDFKVAIGSFSDEPSLEGSMRFGIGITRRAWIEKNRIINTLDANALMSYLKNSQ,not soluble
2,MGTMRIAFQGTAGAYSEEALLKVFPEAKPVGFPTFHQVFEAVEAGEAELGVVPVENTTAGSINQTYDLLLESDLHVVGEIVHRVEHCLLAPKGTTLKDLHAVKSHPQALAQCDGFLARMRLTPIPVFDTAGAAKELAEHPEPGLAAIASRRAAELYGLEVLAENIEDYPHNYTRFFVIGHKEPPRGQGPYKTSIVFAVRHRPGGLLEALSVFAEAGVNLTKLESRPRRDKPFSYLFYLDLEGHLEDPGPAQALLRLLRRVAFLKVLGSYPAHANGGVSAP,soluble
3,GMHHQRKTHVDNNIAAVELAKAYRLLNHGPTVLVSARSQGIDNVMAAAWCCALDFAPPKLTVVLDKMTKTREFIEQSGMFVIQVPTVAQLQLTHRVGSQSLADDANKLLNCGVELFEMAGHDLPFVAGCSAWLACKLIPEPNNQLQYDLFIAEVIGAWADTQVFNHGHWHFDTAPADKRSLHYIAGGQFYAIGESFNAD,soluble
4,GMDVTIERVNDFDGYNWLPLLAKSSQEGFQLVERMLRNRREESFQEDGEAMFVALSTTNQVLACGGYMKQSGQARTGRIRHVYVLPEARSHGIGTALLEKIMSEAFLTYDRLVLYSEQADPFYQGLGFQLVSGEKITHTLDKTAFADSNR,soluble
5,MSLLNTYEPWKFAFSQEETDFNNLKEGAWGIIGVPFDSTTSYHPGSRFGPIVVREASYGFEKYNTIFNTQLDNIFYDFGDVNVVFGNCKKTCDIIEDTVNELSDLKIKPLTIGGEHSLTIGVLNSLTKKYDDLTVVHLDAHRDLADTFIGELYSHASVMKRVHEMGVKELVQIGIRSASKEEEDFVKNQSNITTFKNNDVFHHLDNIEYYLSIIDTPIYLSIDMDVFDPSIAPTVGNPTPNGIAYGHIEAMLQTLSLKNVVGMDVVETAGDRLGDITAVSASKIIYDFLSLLEGHHHHHH,soluble
6,SKQDASRNAAYTVDCEDYVHVVEFNPFENGDSGNLIAYGGNNYVVIGTCTFQEEEADVEGIQYKTLRTFHHGVRVDGIAWSPETRLDSLPPVIKFCTSAADMKIRLFTSDLQDKNEYKVLEGHTDFINGLVFDPKEGQEIASVSDDHTCRIWNLEGVQTAHFVLHSPGMSVCWHPEETFKLMVAEKNGTIRFYDLLAQQAILSLESEQVPLMSAHWCLKNTFKVGAVAGNDWLIWDITRSSYPQNKRPVHMDRACLFRWSTISENLFATTGYPGKMASQFQIHHLGHPQPILMGSVAVGSGLSWHRTLPLCVIGGDHKLLFWVTEV,soluble
7,MKAYRIHVQGIVQAVGFRPFVYRIAHAHNLKGFVRNLGDAGVEIVIEGNEEDIEGFLVDLYKKKPPIARIDKVEKEEIPPQGFDRFYIEKSSTEKKGEGDSIIPPDIAICDDCLKELFDPTNKRYMYPFIVCTNCGPRFTIIEDLPYDRENTAMREFPMCEFCRSEYEDPLNRRYHAEPVACPTCGPSYRLYTNDGNEIVGDPLRKAAKLIDKGYIVAIKGIGGIHLACDATREDVVVELRKRIFRPQKPFAIMAKDLETIRTFAYVSPEEEEELTSYRRPIVALKKKEPFPLPENLAPGLHTIGVMLPYAGTHYILFHWSETPVYVMTSANFPGMPMIKDNEEAFEKLRDVADYLLLHNRRIPNRADDSVVRFVDGRRAVIRRSRGFVPLGIEIPFEYKGLAVGAGLMNAFGVSKSGKVYPSQYIGDTSKIEVLEFMRDAIRHFFKILRIDSLDLVVADLHPSYNTTKLGMEIAEEFGAEFLQVQHHYAHVASVMAEHNLEEVVGIALDGVGYGTDGKTWGGEVIYLGYEDVERLAHIEYYPLPGGDLASYYPLRALIGILSLNHDFEEVEKIIREFCPNAIKSLKYGETEFKVILRQLSSGINVAYASSTGRVLDAFSVLLNVSYRRHYEGEPAMKLESFAYQGKNDLNLTVPIEGEEIKVSELFEEVLELMGKVNPRDIAYSVHLALARAFAEVSVEKAKEFGVKTVVLGGGVGYNELIVKTIRKIVEGRELRFLTTYEVPRGDNGINVGQAFLGGLYLEGYLNREDLSI,soluble
8,MGSDKIHHHHHHMTEQITPQAFLAGRLLLESEVPSEFLTNKDVITEPSIITENGRYHCRRCCNEHRELFATAPCAWCGNRHCIYCRNCLMLGRVTACRKLVRWKGEPYAFPSHSNVLQWKGTLSHGQRHASLQAVQYWKQKEDHIIWAVCGSGKTEIVFDAVAQSLANGERILLATPRVDVVKELYPRFKQAFPSITITALYGDSPSVFHPAQLVIATTHQTFRFKKAFDFVIVDEVDAFPFSCDQSLQLSVNEARRPLAPILYLSATPSRSLLEQNKRITKVSTRYHGHPLPLPSFVWIGNWRKTVMRRKLPSKLVTWLEKHHRKPVFLFVPSIPVLEQVSAALKQLGYIHDAVHAEDPHRHEKVTRFRDGVTKLLVTTTILERGVTVPRVQVAVLGAEHSVFSEAALVQISGRVGRSHRHPTGDIAFFHYGVSKAMKRCRQQLQQMNREGF,not soluble
9,MGSDKIHHHHHHACSSEEGGSQAMGGKGAVILDLAAETVFDTKTKAVDESTYLTDRPLADYKVKILDAQGHVVSGCEWKYSERPTGLIELSNGSYTVVASDGEEFNVNASTRNGIYMYGSSRFDVNSDKVAAVNVACKPACGKLVVKFGDTMATYFSDYAVHFSTQAAGENGSIIWPKGDTDPLYVKLAEAGENVTATFQFTKKADGTNAEVNTLTREMKWGSMWTITVNPKVEDTTGKVGITITFDDSTNDKPIDIEIPSDWL,not soluble
10,AHHHHHHGSSSIEWNEKTFAKFAYLSDPRTKGELVAYVLTKANLKDNKYENTIVIENLKNNARRFIENATMPRISPDGKKIAFMRANEEKKVSEIWVADLETLSSKKILEAKNIRSLEWNEDSRKLLIVGFKRREDEDFIFEDDVPAWFDDLGFFDGEKTTFWIFDTESEEVIEEFEKPRFSSGIWHRDKIVVNVPHREIIPQYFKFWDIYIWEDGKEEKMFEKVSFYAVDSDGERILLYGKPEKKYMSEHNKLYIYDGKEVMGILDEVDRGVGQAKIKDGKVYFTLFEEGSVNLYIWDGEIKPIAKGRHWIMGFDVDEIVVYLKETATRLRELFTWDGEEKQLTDYNDPIFAKLKTFEPVHFRYKSLDLEIDGWYMKPELKEGEKAPVIVFVHGGPKGMYGYYFKYEMQLMAAKGYYIVYVNPRGSNGYSEDFALRVLTRTGLEDFQDILNGIEEFLKLEPQADRERIGITGISYGGYMTNWALTQSDLFKAGISENGISYWLTSYAFSDIGLWFDKEVIGENPLENENFRRLSPLFYAKNVKAPILLIHSLEDYRCPLDQSLMFYHVLKDLGKEAYIAIFKRGAHGHSIRGQPRHRMKRYKLFVEFFERKLKKYEEGFPIEKILKE,not soluble
11,MKMFQKMCASTVIITTLLGIGGTVNSVHADSIEQQSKLGIDQETDKQIIVKFKADLKFPYEDGIEKQIQSQTNDKVLEDLLVEYPDVTFTRLFTSVSPEEIEDLEVKAPNNVSTSLLNYYILQTQNGEQKEELVDRLKKSCLIEDVYMKKQEKITPPEVQPSSVSLSPNNNPRFKQQGYLEAAPYGINAPFAWEVQGGKGSGITFVDMEYGWLLNHEDLVHQNIELMSGINIDQHVGHGTSVLGIVSSEDNEVGNIGIAPKAKAKVISQIRDNGQYNTADAILSAVNQLEAGDVLLLEAQASFDGYGDKYLPVEVQPDIFDAIRAGTDKGVVIIEAGANGWNDLDQFKDRNGKQILNRNSKDFKDSGAIMVGAGSSSFPHGRMWFSNYGSRIDVYGWGENVDTTTAEQSRSAVNLYTSSFSGTSSASPIIAGAATLVQSIAKENLGQPYRPSELRAILSNENTGTKSKDPYADQIGVLPDLKSILVNLGYGQRKPNGGNELQVTENEPNNERIQANKVNFHTPMKGTLHNSDRVDVFTFQMDSPENITISLLNEQNIGMTWVLHHESDLNNYVAYGENEGNVVKGTYHAKPGKYYLYVYKYENKDGSYVLNIK,not soluble
